Source: the supplement of paper PMC12042874
± gives the uncertainty stated by the source.

Experiment: amyloid nucleation score (Sup35N fusion, yeast selection) (log enrichment); library NNK1; higher = more nucleation; inactive = no reads after selection
Method in brief: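 Random libraries were run with three technical output replicates. In each, psi-negative yeast expressing Sup35N fused to peptides of 20 random codons were induced 24 hours with 100 μM copper sulfate and grown 7 days at 30°C on medium lacking adenine and uracil, and input and output plasmid inserts were Illumina-sequenced. The nucleation score is the DiMSum log enrichment of output over input reads, centred on the mode score of non-aggregating sequences, and sequences under 100 input reads were excluded.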

Substance | amyloid nucleation score
HREMMWQGKRV | inactive
KVVTGLIYFWCIWCFGTLRV | 0.431 ± 0.9
NGWIMRR | -0.094 ± 1.5
LYVPCAIVGSLTRG | 1.06 ± 0.66
VGLLEAFMLRGDSRRCD | -1.25 ± 2.1
VKCGLG | 0.696 ± 0.84
VGSLGM | -0.221 ± 0.37
SRLSQDPRTSSAIMSWLRYS | 0.886 ± 1.1
YCSKRFLVKRNFLLFYNCDF | 1.03 ± 0.5
IMWLLLPRYDLFFRLMYTAS | 0.617 ± 0.46
QDQSGPVLASCIWYLCSETN | 7.403 ± 0.052
CCIFIDFTVIALGRTLVVRH | -1.17 ± 1.2
RYPTGAKKLQMLNDVLMLYR | -0.479 ± 0.3
ELVYRMESIFCSELRVLGKF | 4.14 ± 0.15
SCRSGRRRPLPTGGPILATN | -0.015 ± 0.64
VVHRALLYGNGIVN | 1.4 ± 0.7
FHCGMGIF | -0.197 ± 0.32
RYVPVATKSSTGMSYWDIMV | 0.194 ± 0.38
YLSCLNFRLGSMFMRSL | 0.653 ± 0.93
NSLCEFSMKMFTYNSMGGFI | 1.86 ± 0.26
CAFEAGLWTSDFLNEPVYHY | -0.126 ± 0.3

Substance | amyloid nucleation score
CFRFDYVGTYKHMPFR | 4.02 ± 0.16
SIMNISVAYCGSM | 3.67 ± 0.14
MCWPTDAEDAICTSLK | 2.12 ± 0.11
NMFTFLSKRR | -0.928 ± 0.4
CLLLARVVALVGPPSRTSGV | -0.121 ± 0.4
NDTVWVVWMLKELSLYVELV | 0.329 ± 0.53
DLSNNRWWFNRFRALHYKSS | -0.358 ± 0.85
RRSSILVNTGYPDLGYVMGD | -1.18 ± 1.3
AYVRGCLFILPFRPTQV | 1.42 ± 0.14
LGLRFTCRLFGCIYTRASIM | -0.735 ± 1.7
VCRGGSSFLLNTKLVNT | 0.675 ± 0.33
GGDSQCVLTGFWYCSTWGKG | 6.438 ± 0.056
VMSGRCFTRCAFGLQRVPSV | 0.033 ± 0.63
PNSYASVHSNHKDIREAMYL | 0.021 ± 0.44
VLEYPSTSAARFSHRVKRK | 8.434 ± 0.047
AAGHVAVAIRNRVVIARSRT | 3.4 ± 0.11
FRLLGLTR | 0.087 ± 0.62
ARHRDALFRCEDMFGKVQYS | -0.296 ± 0.56
NISPISYKIVVTIYSYFWLS | 0.452 ± 0.4
CFFPIRDQQCTRSYHFSDHM | 0.727 ± 0.63
